The values below come from patent US20160000054A1, “HUMAN-DERIVED MUTANTS OF THE dSOD1 GENE IN DROSOPHILA AND METHODS OF MAKING AND USING” (priority 2014, published 2016).

Assay type in all cases: in vivo, Drosophila melanogaster
For assay [1], the system named is dSod1-G85R and dSod1-H71Y mutant larvae. As to the kind of experiment: Larval locomotor (motility) defect in dSod1 mutant larvae. The settings on record: expression of Gbb. The text has this: (§1) The genetically accurate model of ALS disclosed herein, can be used to elucidate not only the behavioral and electrophysiological changes, but also the cellular and molecular basis of disease progression. ALS-associated loss in motor neuron function and subsequent cell death has been attributed to defects in a number of processes from protein aggregation, increases is axonal membrane excitability, mitochondrial dysfunction, to changes in RNA metabolism and general metabolic homeostasis (49-55). This model system was used to explore the involvement of these processes in disease progression. […] The time of death varied between the different dSod1 mutations with <0.1% dSod1-G85R adults emerging from the pupal case (a feat requiring considerable muscle strength) to 33% emergence by the less severe dSod1-H71Y followed by death within 7-10 days of adulthood. […] Characterization of this progressive loss in motor function in detail during can be performed using immunohistochemical markers of muscle, as well as Drosophila lines expressing GFP-tagged muscle proteins (Mhc-mCD8-GFP) that allow visualization of muscles in living animals. Examination of the innervation of the muscles in controls and mutants is done by concomitant labeling of the MNs (CD8-RFP driven in MNs). […]

The test system of another assay is dSod1-G85R mutants. Nature of the assay: Spontaneous motor neuron activity recorded from larval muscles with motor circuit intact. The settings on record: expression of Gbb. The text has this: Consistent with the reduced motility observed in dSod1-G85R late 3rd instar larvae, there was a concordant reduction in the spontaneous activity of MNs when recorded from larval muscles in preparations with the motor circuit intact (brain and ventral nerve cord (VNC) remain attached to the body wall muscles). […] These analyses, coupled with studies on muscle structure can provide a well-defined depiction of disease progression. While ALS paralysis results from a dramatic degeneration of MNs and atrophied muscles, it is unclear when and where the decline in function originates. It could begin in a specific set of cells or the loss of function could be a systemic effect. This can be addressed using the Drosophila model system disclosed herein. For example, directed expression of channel-rhodopsin (ChR2) to specific cells or neurons can be done, followed by excitation of those cells with a flash of light and recording of the response in the circuit output of a particular larval muscle. Driving UAS-ChR2 within different neurons (OK371Gal4 in motorneurons, ChaGal4 in cholinergic neurons, specific neural Gal4 lines from Janeila Farm collection) (55) can be done to address the integrity of the neural circuit and interrogate the function of individual neurons.
Gbb, the Drosophila orthologue of vertebrate BMPs 5, 6, 7, acted as a retrograde signal at the NMJ (56). […]

The test system of a further assay is G85R/H71Y. As to the kind of experiment: Adult eclosion (emergence from the pupal case). The following applies: G85R/H71Y flies; expression of Gbb; 15% without Gbb.
Excerpt: as §1

B1: Gbb: the Drosophila orthologue of vertebrate BMPs 5, 6, 7; expressed genetically in the flies, not dosed (protein, UniProt P27091 336-455, looked up)
Protein 60A: SVSPNNVPLLEPMESTRSCQMQTLYIDFKDLGWHDWIIAPEGYGAFYCSGECNFPLNAHMNATNHAIVQTLVHLLEPKKVPKPCCAPTRLGALPVLYHLNDENVNLKKYRNMIVKSCGCH
Consider B1, for which the locomotor defect result in assay [1] (dSod1-G85R mutant larvae) and in assay [1] (dSod1-H71Y mutant larvae) was “rescued” each time. The “spontaneous MN activity” value with dSod1-G85R mutants is “restored normal spontaneous MN activity”. Also, in the assay on G85R/H71Y, the eclosion was 45%.
